Measured values as given in patent US20220372159A1.

Molecular target: CD84 on CD4+ T cells of wild-type mice (mouse) (UniProt Q18PI6)
Assay: cell-based or functional assay

UniProt Q18PI6, sequence (Q18PI6 22-329): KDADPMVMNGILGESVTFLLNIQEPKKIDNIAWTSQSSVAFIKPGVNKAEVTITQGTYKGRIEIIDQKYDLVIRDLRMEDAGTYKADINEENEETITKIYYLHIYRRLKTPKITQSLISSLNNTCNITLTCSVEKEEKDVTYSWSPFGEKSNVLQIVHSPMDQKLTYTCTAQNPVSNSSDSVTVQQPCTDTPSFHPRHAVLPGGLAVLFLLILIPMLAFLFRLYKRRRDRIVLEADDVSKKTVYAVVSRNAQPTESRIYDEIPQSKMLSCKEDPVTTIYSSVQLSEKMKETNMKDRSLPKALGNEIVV

distance and speed of migrating T cells (migration assay with platelet releasate): 25%
Substance: platelet-derived soluble CD84 (sCD84) in the releasate of GPVI-stimulated WT mouse platelets (from UniProt Q18PI6 22-221) (receptor)
